We go through 2 substances from patent US20080242587A1.

In assay [1] the target is Ang2 (produced from CHO cell) (UniProt O15123). The assay can be described thus: ELISA titration, Ang2 coated, anti-human Fc-HRP. (ELISA stands for enzyme-linked immunosorbent assay.)
For assay [2], the target named is VEGF-A165 (produced from CHO cell) (UniProt P15692). The assay can be described thus: ELISA titration (0-3 nM), VEGF-A coated, anti-human Fc-HRP.
Sequence of UniProt P15692 (P15692 other isoform, or with tags, fused parts or gaps limits assumed): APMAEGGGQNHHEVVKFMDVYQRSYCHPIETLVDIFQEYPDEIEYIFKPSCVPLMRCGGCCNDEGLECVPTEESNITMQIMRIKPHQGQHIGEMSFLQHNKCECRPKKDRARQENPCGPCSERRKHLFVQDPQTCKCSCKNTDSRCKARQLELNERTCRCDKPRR

Sequence of UniProt O15123 (O15123 19-496 limits assumed): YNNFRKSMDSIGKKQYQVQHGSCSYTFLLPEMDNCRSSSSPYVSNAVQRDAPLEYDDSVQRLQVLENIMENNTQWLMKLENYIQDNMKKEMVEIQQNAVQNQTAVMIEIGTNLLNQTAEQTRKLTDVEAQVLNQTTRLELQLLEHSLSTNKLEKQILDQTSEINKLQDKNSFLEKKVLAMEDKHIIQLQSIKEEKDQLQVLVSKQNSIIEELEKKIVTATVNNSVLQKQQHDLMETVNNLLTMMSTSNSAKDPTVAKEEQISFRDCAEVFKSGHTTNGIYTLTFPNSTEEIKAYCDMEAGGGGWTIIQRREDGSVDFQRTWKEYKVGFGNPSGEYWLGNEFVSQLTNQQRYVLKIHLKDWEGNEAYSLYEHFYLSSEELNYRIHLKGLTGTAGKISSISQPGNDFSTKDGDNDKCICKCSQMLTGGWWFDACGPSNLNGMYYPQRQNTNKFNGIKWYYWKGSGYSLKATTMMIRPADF

For orientation: Kd means the concentration at which binding is half-saturated. Low readings indicate tighter binding, high ones weaker binding. For the substance Tie2-Fc (Fc fusion), the Kd in assay [1] was 50 nM. For the substance VEGF-trap (Fc fusion), the dissociation constant (Kd) in assay [2] came out at 0.001 nM.
